Experimental data taken from patent publication US20130115212A1 (LUNDBECK A S, published 2013).
Values belong to the molecule of their own block, whether it stands above or below them. Where no end group is shown, it is not given here.

Legend:
[1] = target: SorLA expressed on cells (stably transfected HEK293 cells; SY5Y neuroblastoma cells, endogenous or overexpressed) (Homo sapiens) (UniProt Q92673); assay: FRET on non-permeabilized fixed cells, SorLA acceptor, GFRα1 donor
[2] = target: SorLA extracellular domain (immobilized on the Biacore chip) (Homo sapiens) (UniProt Q92673); assay: SPR, immobilized SorLA
[3] = target: SorLA extracellular domain (immobilized on the Biacore chip) (Homo sapiens) (UniProt Q92673); assay: SPR, GFRα1 over immobilized SorLA extracellular domain
[4] = target: SorLA extracellular domain (immobilized on the Biacore chip) (Homo sapiens) (UniProt Q92673); assay: SPR (Biacore), SorLA immobilized; series of 20, 50, 100 and 200 nM
[5] = target: T1, SorLA extracellular domain (immobilized on the Biacore chip) (Homo sapiens, UniProt Q92673 82-2137); assay: SPR, immobilized SorLA
T1 construct: also called immobilized SorLA; LR11

[6] = target: T1, SorLA extracellular domain (immobilized …); assay: SPR, GDNF over immobilized SorLA; lower end of the range
Method: (§1) (A) The domain structure of SorLA is depicted. (B) GDNF binds to immobilized SorLA in a concentration-dependent manner as shown by SPR. […] (C) SorLA binding is selective for GDNF and not the other GDNF family ligands, artemin, neuturin, and persephin. The neurotrophic factor concentrations used are 20 nM. (D) The interaction is mediated by the mature part of GDNF and not the GDNF propeptide (GDNFpro). Sensorgrams of 100 nM ligand concentration are shown. […] (G-H) Internalization of 50 nM GDNF by 293 cells or 293 cells stably expressing SorLA. Internalized GDNF (green) was visualized by immunofluorescense. (I) GDNF internalization was inhibited by excess neurotensin (NT, 20 μM).

[7] = target: T1, SorLA extracellular domain (immobilized …); assay: SPR, GDNF over immobilized SorLA; upper end of the range
Method: as §1

[8] = target: T1, SorLA extracellular domain (immobilized …); assay: SPR (Biacore), SorLA immobilized; GST fusion protein, concentration not given
Excerpt: (A) fusion proteins between GST and the GDNF propeptide (GDNFpropep), the N-terminal 38 amino acids of mature GDNF (GDNFN-term), or the GDNF propeptide followed by the first 38 amino acids of mature GDNF (GDNFN-term propep) binding to immobilized SorLA. GST alone is included as negative control. (B) a peptide encompassing the first 38 amino acids of mature GDNF binds to SorLA in concentration-dependent manner.

[9] = target: T1, SorLA extracellular domain (immobilized …); assay: SPR, immobilized SorLA (title of Fig. 17)
[10] = target: T1, SorLA extracellular domain (immobilized …); assay: SPR (Biacore), SorLA immobilized; SorLApro 10 uM by the legend, injected before GDNF in the inhibition experiment
Method: as §1

Chain of SorLA extracellular domain (immobilized on the Biacore chip) (Homo sapiens) (Q92673 82-2137 limits assumed): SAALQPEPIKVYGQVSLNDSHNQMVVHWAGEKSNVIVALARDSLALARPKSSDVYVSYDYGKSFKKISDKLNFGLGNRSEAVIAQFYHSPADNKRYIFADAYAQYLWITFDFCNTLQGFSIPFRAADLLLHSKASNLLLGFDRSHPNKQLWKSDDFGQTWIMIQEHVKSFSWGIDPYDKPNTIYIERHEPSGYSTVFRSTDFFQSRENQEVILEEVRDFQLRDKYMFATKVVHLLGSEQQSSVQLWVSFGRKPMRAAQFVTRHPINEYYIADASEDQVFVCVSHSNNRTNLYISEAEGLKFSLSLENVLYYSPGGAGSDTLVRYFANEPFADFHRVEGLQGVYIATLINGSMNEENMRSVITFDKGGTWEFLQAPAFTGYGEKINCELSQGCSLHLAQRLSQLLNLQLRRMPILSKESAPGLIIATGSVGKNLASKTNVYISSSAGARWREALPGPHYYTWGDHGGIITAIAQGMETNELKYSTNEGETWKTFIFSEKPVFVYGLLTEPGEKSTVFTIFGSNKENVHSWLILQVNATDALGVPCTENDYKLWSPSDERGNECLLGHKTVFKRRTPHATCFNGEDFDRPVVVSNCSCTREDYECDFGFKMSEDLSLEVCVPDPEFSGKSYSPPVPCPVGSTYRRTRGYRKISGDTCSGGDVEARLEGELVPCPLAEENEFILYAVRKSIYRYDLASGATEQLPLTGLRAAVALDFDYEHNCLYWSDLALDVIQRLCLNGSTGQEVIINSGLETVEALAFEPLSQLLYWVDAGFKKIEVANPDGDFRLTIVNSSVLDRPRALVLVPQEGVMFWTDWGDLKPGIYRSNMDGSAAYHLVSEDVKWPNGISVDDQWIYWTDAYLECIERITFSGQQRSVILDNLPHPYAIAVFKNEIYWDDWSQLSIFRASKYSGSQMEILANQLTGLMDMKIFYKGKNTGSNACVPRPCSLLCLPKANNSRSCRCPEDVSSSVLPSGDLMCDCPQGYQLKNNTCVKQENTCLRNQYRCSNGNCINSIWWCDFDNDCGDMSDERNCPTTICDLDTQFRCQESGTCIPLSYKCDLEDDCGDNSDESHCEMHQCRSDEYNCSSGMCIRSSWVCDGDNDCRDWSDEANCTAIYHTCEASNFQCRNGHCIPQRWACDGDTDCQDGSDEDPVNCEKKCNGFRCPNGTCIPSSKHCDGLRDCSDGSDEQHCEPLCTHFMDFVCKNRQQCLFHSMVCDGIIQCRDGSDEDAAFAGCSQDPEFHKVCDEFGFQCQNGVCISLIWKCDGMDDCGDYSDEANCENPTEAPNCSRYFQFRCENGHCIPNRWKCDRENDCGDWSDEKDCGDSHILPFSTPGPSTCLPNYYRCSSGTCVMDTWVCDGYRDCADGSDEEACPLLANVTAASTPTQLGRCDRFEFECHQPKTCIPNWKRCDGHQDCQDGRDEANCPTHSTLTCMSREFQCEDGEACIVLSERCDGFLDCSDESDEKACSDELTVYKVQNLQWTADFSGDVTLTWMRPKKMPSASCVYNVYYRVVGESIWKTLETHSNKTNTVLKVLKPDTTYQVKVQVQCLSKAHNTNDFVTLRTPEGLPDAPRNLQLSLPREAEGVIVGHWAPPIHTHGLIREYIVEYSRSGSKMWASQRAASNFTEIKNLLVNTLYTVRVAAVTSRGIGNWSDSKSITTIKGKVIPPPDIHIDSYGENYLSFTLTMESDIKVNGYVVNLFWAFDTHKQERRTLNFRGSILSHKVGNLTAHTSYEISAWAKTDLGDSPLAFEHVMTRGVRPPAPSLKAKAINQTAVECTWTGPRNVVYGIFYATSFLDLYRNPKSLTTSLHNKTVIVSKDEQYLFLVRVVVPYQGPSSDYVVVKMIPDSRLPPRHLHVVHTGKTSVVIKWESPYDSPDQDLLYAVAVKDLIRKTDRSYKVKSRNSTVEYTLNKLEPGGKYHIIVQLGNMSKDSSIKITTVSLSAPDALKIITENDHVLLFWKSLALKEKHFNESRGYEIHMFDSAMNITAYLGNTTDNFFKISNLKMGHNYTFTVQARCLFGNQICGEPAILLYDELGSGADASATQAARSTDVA
T1 sequence (Q92673 82-2137 limits assumed): as above
Chain of SorLA expressed on cells (stably transfected HEK293 cells; SY5Y neuroblastoma cells, endogenous or overexpressed) (Homo sapiens) (Q92673 82-2214 limits assumed): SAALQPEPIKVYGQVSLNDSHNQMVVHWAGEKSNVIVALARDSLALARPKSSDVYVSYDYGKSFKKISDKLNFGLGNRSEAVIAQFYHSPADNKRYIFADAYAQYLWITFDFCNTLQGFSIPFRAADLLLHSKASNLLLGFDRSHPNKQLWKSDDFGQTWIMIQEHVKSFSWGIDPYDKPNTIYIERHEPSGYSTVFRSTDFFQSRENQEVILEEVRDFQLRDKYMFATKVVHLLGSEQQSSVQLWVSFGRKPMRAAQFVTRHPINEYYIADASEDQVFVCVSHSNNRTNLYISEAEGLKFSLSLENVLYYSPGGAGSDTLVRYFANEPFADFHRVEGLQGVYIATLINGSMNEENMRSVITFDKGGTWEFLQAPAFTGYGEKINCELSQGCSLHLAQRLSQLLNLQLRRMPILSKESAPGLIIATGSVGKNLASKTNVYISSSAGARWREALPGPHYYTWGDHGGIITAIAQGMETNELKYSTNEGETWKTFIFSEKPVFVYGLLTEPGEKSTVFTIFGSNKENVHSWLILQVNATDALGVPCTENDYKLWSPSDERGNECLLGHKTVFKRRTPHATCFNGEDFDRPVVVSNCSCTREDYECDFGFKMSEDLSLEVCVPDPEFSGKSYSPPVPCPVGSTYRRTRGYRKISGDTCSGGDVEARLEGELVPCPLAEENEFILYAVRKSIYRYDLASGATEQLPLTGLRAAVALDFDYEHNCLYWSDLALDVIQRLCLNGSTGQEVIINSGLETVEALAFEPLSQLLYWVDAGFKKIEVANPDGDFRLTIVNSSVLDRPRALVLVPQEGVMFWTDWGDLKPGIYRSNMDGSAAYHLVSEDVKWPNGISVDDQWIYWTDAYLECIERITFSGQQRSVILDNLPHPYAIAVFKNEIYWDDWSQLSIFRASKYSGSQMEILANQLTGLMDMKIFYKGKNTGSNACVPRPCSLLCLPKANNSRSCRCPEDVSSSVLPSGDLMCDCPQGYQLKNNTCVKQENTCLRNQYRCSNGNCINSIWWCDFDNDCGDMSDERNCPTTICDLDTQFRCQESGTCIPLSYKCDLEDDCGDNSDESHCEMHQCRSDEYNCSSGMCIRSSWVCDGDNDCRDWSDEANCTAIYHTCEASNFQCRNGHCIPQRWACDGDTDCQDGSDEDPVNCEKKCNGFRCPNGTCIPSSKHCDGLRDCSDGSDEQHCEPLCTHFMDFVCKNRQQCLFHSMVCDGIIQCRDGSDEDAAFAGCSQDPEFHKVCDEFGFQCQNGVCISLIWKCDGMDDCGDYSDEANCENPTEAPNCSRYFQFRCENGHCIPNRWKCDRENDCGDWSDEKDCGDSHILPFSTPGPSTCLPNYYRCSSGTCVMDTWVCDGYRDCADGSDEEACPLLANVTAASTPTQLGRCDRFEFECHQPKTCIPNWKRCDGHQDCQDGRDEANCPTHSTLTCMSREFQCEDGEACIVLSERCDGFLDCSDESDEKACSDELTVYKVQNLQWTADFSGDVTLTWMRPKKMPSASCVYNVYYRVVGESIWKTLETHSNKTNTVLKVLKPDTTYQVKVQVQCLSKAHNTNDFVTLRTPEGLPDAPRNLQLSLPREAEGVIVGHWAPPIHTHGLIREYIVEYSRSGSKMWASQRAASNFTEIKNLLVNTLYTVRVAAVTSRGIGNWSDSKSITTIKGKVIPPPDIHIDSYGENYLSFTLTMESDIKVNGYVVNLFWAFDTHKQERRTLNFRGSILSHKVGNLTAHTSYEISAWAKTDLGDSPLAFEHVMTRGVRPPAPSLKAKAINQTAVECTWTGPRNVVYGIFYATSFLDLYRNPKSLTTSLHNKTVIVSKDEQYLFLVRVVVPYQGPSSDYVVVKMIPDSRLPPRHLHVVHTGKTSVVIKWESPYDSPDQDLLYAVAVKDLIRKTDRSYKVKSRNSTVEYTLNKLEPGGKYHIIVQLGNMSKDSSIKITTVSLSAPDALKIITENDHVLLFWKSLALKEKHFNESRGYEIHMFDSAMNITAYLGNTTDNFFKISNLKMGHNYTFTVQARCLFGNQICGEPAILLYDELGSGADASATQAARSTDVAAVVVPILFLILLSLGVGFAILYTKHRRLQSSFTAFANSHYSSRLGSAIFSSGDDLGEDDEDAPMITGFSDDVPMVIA

Molecule: GFRα1 expressed on cells (stably transfected HEK293 cells) (from UniProt P56159 25-429) (receptor)
mean Eapp% [1]: 16%

Molecule: N-terminal truncated soluble GFRα1 variant lacking domain 1 (from UniProt P56159 145-429) (receptor)
Kd [2]: 120 nM

B2: Glia cell-derived neurotrophic factor (GDNF) (ligand)
chain: SPDKQMAVLPRRERNRQAAAANPENSRGKGRRGQRGKNRGCVLTAIHLNVTDLGLGYETKEELIFRYCSGSCDAAETTYDKILKNLSRNRRLVSDKVGQACCRPIAFDDDLSFLDDNLVYHILRKHSAKRCGCI
notes: also called mature GDNF
Kd [6]: ≥ 3 nM
Kd [7]: ≤ 8 nM

B3: GDNFN-term (other)
chain: SPDKQMAVLPRRERNRQAAAANPENSRGKGRRGQRGKN
modifications: also: GST fusion partner (letters not given here)
notes: also called GST fusion of the N-terminal 38 amino acids of mature GDNF; not shown: GST fusion partner and any linker to it
binding result [8]: binds

B4: peptide encompassing the first 38 amino acids of mature GDNF (peptide)
peptide: B3 chain
notes: also called N-terminal 38 amino acids of mature GDNF
binding result [9]: binds

The remaining lines, values ahead:

Kd [2]: 12 nM
Kd [3]: 6 nM
Kd [4]: 10 nM
Molecule: soluble full length GFRα1 (from UniProt P56159 25-429) (receptor)

binding result [5]: no binding (tested: 20 nM)
B1: persephin (ligand, UniProt O60542 61-156, looked up)
chain: ALSGPCQLWSLTLSVAELGLGYASEEKVIFRYCAGSCPRGARTQHGLALARLQGQGRAHGGPCCRPTRYTDVAFLDDRHRWQRLPQLSAAACGCGG
notes: also called PSPN

binding result [5]: no binding (tested: 20 nM)
B5: artemin (ligand, UniProt Q5T4W7 108-220, looked up)
chain: AGGPGSRARAAGARGCRLRSQLVPVRALGLGHRSDELVRFRFCSGSCRRARSPHDLSLASLLGAGALRPPPGSRPVSQPCCRPTRYEAVSFMDVNSTWRTVDRLSATACGCLG
notes: also called ARTN

binding result [10]: binds
B6: SorLA propeptide (peptide)
peptide: EVWTQRLHGGSAPLPQDRGFLVVQGDPRELRLWARGDARGASRADEKPLRRKR

binding result [8]: binds
B7: GDNFN-term propep (other, not shown: a dimerising Fc or GST; large carriers; small tags and cut ends)
chain: FPLPAGKRPPEAPAEDRSLGRRRAPFALSSDSNMPEDYPDQFDDVMDFIQATIKRLKRSPDKQMAVLPRRERNRQAAAANPENSRGKGRRGQRGKN
notes: also called GST fusion of the GDNF propeptide followed by the first 38 amino acids of mature GDNF

binding result [8]: no binding
B8: GDNFpropep (other)
fusion protein: FPLPAGKRPPEAPAEDRSLGRRRAPFALSSDSNMPEDYPDQFDDVMDFIQATIKRLKR
notes: also called GST fusion of the GDNF propeptide

binding result [5]: no binding (tested: 100 nM)
B9: GDNF propeptide (peptide)
peptide: B8 fusion protein

binding result [5]: no binding (tested: 20 nM)
B10: neuturin (neurturin) (ligand, UniProt Q99748 96-197, looked up)
chain: ARLGARPCGLRELEVRVSELGLGYASDETVLFRYCAGACEAAARVYDLGLRRLRQRRRLRRERVRAQPCCRPTAYEDEVSFLDAHSRYHTVHELSARECACV
notes: also called NRTN
